Experimental data from US20070135338A1 (published 2007).
No end group written: not given here.

Molecular target: GLP-1R on Rinm cells
Test: cell-based or functional assay

cAMP activity in Rinm cells (EC50): 0.4 nM
Binder: HAEGTFTSDVSSYLEGQAAKEFIAWLVKGRG (not fully specified) [GLP-1 peptide]
